Read-outs that look alike come from different tables or passages of the source.
What was measured:
Wild-type ubiquitin [1] = target: T1, Wild-type ubiquitin (UniProt P0CG48 1-76); experiment: NMR titration
Wild-type ubiquitin [2] = target: T1, Wild-type ubiquitin; experiment: NMR titration; remark: listed apart in the source

| Binder | Kd (Wild-type ubiquitin [1]) [µM] | Kd (Wild-type ubiquitin [2]) [µM] |
| --- | --- | --- |
| GAPVSSPEYTKKIENLCAMGFDRNAVIVALSSKSWDVETATELLLSN (domain or fragment, UniProt P61086 154-200, looked up) [E2-25K UBA domain (residues G154-N200)] | ~1200 | – |
| Full-length E2-25K (enzyme, UniProt P61086 1-200, looked up) MANIAVQRIKREFKEVLKSEETSKNQIKVDLVDENFTELRGEIAGPPDTPYEGGRYQLEIKIPETYPFNPPKVRFITKIWHPNISSVTGAICLDILKDQWAAAMTLRTVLLSLQALLAAAEPDDPQDAVVANQYKQNPEMFKQTARLWAHVYAGAPVSSPEYTKKIENLCAMGFDRNAVIVALSSKSWDVETATELLLSN | – | ~1000 |
